Assay results: publication PMC9263355 (2022)

Biological target: 4-1BB (Homo sapiens, UniProt Q07011)
Assay: fluorescence anisotropy

Sequence of 4-1BB (Q07011 24-255): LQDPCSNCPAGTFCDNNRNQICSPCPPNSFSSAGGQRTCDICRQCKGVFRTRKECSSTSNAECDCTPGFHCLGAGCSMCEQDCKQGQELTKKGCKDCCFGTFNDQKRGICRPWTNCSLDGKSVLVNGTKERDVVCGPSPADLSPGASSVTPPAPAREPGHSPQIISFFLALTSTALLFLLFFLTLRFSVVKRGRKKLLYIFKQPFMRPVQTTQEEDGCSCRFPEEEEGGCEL

- Kd: ~1.5 µM
B1: Galectin-9N N-terminal CRD (protein)
chain: MAFSGSQAPYLSPAVPFSGTIQGGLQDGLQITVNGTVLSSSGTRFAVNFQTGFSGNDIAFHFNPRFEDGGYVVCNTRQNGSWGPEERKTHMPFQKGMPFDLCFLVQSSDFKVMVNGILFVQYFHRVPFHRVDTISVNGSVQLSYISFQ
